Results: patent US10801027B2, “Inhibitors of SRSF1 to treat neurodegenerative disorders” (University of Sheffield, priority 2016, dated 2020)

System: poly-Gly-Pro and poly-Gly-Ala DPRs
Experiment: Western blot of RAN-translated DPRs in N2A cells
Assay type: cell-based, mouse
Details: G4C2×38 or C4G2×39 constructs, 72 h
Protocol: Neuro-2a (ATCC) cells were cultured in Dulbecco's Modified Eagle Medium (Sigma) supplemented with 10% fetal bovine serum [FBS] (Gibco), 5 U/ml Penstrep (Lonza) and 5 mM sodium pyruvate. Cells were maintained in a […] incubator with 5% CO2. 75,000 Neuro-2a cells were split into each well of 24-well plates and transfected for 72 h with 500 ng pcDNA6.2-GW/EmGFP-Control miR RNAi (ThermoFisher) or pcDNA6.2-GW/EmGFP-mouse SRSF1 miR1+2 RNAi and 200 ng pcDNA 3.1/RAN-G4C2×38-sense or RAN-C4G2×39-antisense using 3 μg PEI/1 μg DNA and one tenth medium volume OptiMEM (ThermoFisher).
HEK cells were transfected for 72 h with 650 ng pcDNA6.2-GW/EmGFP-Control miRNA, pCDNA6.2-GW/EmGFP-human SRSF1 miR1+2 RNAi or LV-EmGFP-human SRSF1 miR1+2 RNAi constructs and 50 ng p3×FLAG/human-SRSF1 using 3.5 μg PEI/ml media and one tenth medium volume of OptiMEM. Neuro-2a cells were split into each well of 24-well plates (75,000 cells/well) and transfected for 72 h with 350 ng pcDNA6.2-GW/EmGFP-Control miR RNAi (ThermoFisher), pcDNA6.2-GW/EmGFP-mouse SRSF1 miR1+2 RNAi, p3×FLAG, p3×FLAG/SRSF1 (11-196), p3×FLAG/SRSF1 (11-196)-m2 or p3×FLAG/SRSF1 (11-196)-m4 and 350 ng pcDNA 3.1/RAN-G4C2×38-sense or RAN-C4G2×39-antisense using 3 μg PEI/1 μg DNA and one tenth medium volume OptiMEM.
Proteins were extracted from HEK or Neuro-2a cells 72 hours after transfection. […] Protein extracts were quantified using Bradford Reagent (BioRAD), resolved by SDS-PAGE, electroblotted onto nitrocellulose membrane and probed using the relevant primary antibody. […] (kindly received from Prof Stuart Pickering Brown) primary antibodies were detected with horseradish peroxidase (HRP)-conjugated rabbit secondary antibody [1:5000 dilution] […] (kindly provided from Prof Dieter Edbauer) primary antibodies were detected using HRP-conjugated mouse secondary antibody [1:5000 dilution] […] For dot blot analysis, 50 μg total protein extracts prepared in ice-cold lysis buffer were loaded onto a nitrocellulose membrane using a microfiltration apparatus (Biorad) and analysed by western immunoblotting as previously described.

B1: SRSF1-m4: quadruple SRSF1 point mutant aa11-196, dominant negative, does not interact with TAP/NXF1 (protein)
chain: AGNNDCRIYVGNLPPDIRTKDIEDVFYKYGAIRDIDLKNRRGGPPFAFVEFEDPRDAEDAVYGRDGYDYDGYRLRVEFPASGAGTGRGGGGGGGGGAPRGRYGPPSAASENRVVVSGLPPSGSWQDLKDHMREAGDVCYADVYRDGTGVVEFVRKEDMTYAVRKLDNTKFRSHEGETAYIRVKVDG
modifications: left off: small tags and cut ends
For B1, the “effect on RAN translation / production of sense and antisense DPRs” value was “marked reduction”.
